Experimental data published in paper PMC6034511.

System: HIV-1 RT p66/p51 wild type (HIV-1)
Experiment: fluorescence polarization
Settings: not stated in the held text (SI Experimental section)

With 5'-fluorescein DNA/RNA hybrid the Kd was 3.5 nM.
